# Experimental data from patent US10000775B2, “Biosynthesis of 1-undecene and related terminal olefins” (The Regents of the University of California, priority 2013, dated 2018).
# B1: PFL_4321: protein of 261 amino acids from Pseudomonas fluorescens Pf-5; non-heme iron (II)-dependent enzyme converting medium-chain fatty acids into terminal olefins (protein, listed as Pseudomonas fluorescens)
# chain: MIDTFSRTGPLMEAASYPAWTQQLIQDCSESKRRVVEHELYQRMRDNKLSAKVMRQYLIGGWPVVEQFALYMAQNLTKTRFARHPGEDMARRWLMRNIRVELNHADYWVHWSRAHGVTLEDLQAQQVPPELHALSHWCWHTSSADSLIVAIAATNYAIEGATGEWSALVCSNGIYAAAFPEEDRKRAMKWLKMHAQYDDAHPWEALEIIVTLAGLNPTKALQAELRQAICKSYDYMYLFLERCMQQEKTAVTRERLALAEG
# Key:
# [1] = system: Saccharomyces cerevisiae S288c; test: Small-scale 1-alkene production in S. cerevisiae; format: cell-based; conditions: expression of PFL_4321, 30° C., 36 hours
# Experimental: FIG. 25 illustrates GC-MS analysis of 1-undecene and nonene productions from Saccharomyces cerevisiae S288c (pESC_URA_PFL_4321). Saccharomyces cerevisiae S288c (pESC_URA_PFL_4321) was cultured in YPD media in sealed headspace vial at 30° C. for 36 hours before sampling using SPME-GCMS method.
# PFL_4321 was PCR-amplified by using pESC-und-F/-R as primers (Table 1) and pZR59 as template, digested with BamH1/Sal1, and ligated into the pESC-URA vector to yield pESC-PFL_4321. S. cerevisiae was then transformed with pESC-PFL_4321 using the lithium acetate method outlined in the pESC-URA manual (Stratagene). Transformants were selected by […]. The cultures were grown in yeast-peptone media supplemented with 1% galactose in headspace GC vials at 30° C. for 36 hr before SPME-GCMS analysis.
# [2] = In vitro anaerobic enzymatic assays; format: biochemical
# Experimental: FIG. 6 illustrates GC-MS detection of 1-undecene production by PFL_4321 in the aerobic/anaerobic assays. The anaerobic assay was performed by using the anaerobically purified enzyme and degassed reagents, adding glucose oxidase/glucose/catalase, and conducting the experiment in an anaerobic chamber with ppm O2<0.7. The control aerobic assay was performed by using a similar reaction mixture under ambient air conditions and omitting glucose oxidase.
# All of the reagents were bubbled with nitrogen gas and equilibrated in the anaerobic chamber overnight before use. E. coli BL21 Gold (DE3, pZR60_HRV3c) was grown, harvested, and lysed as mentioned above. The insoluble fraction was removed by centrifugation, and the soluble proteins were incubated with 1 mL of Ni-NTA beads (Qiagen) on a nutator at 4° C. for 1 hr. The proteins were then moved into the anaerobic chamber, loaded onto a gravity flow column, washed with washing buffer (50 mM imidazole, 20 mM Tris, 300 mM NaCl, pH 8.5), and eluted with eluting buffer (300 mM imidazole, 20 mM Tris, 300 mM NaCl, pH 8.5). Purified proteins were exchanged into 20 mM Tris (pH 8.5) and 300 mM NaCl by passing through a desalting column (GE Disposable PD-10), and then concentrated using Amicon Centrifugal Filter Units. The protein solution was equilibrated in the anaerobic chamber on a Thermomixer at 4° C. overnight. […]
# [3] = Enzyme recycling experiments; format: biochemical; conditions: for 1-undecene produced (activity) compared with the original PFL_4321: recycled after single turnover with EDTA, reconstituted with fresh Fe2+
# Experimental: To recycle the PFL_4321, 1 mL of the oxygenated buffer solution (50 mM MES, pH 6.2, 100 mM NaCl) was mixed with 1 mL of an O2-free solution containing 50 mM MES buffer (pH 6.2), 100 mM NaCl, 200 μM PFL_4321, 1 mM (NH4)2Fe(SO4)2, 2 mM LA, so that the final mixture contained 50 mM MES buffer (pH 6.2), 100 mM NaCl, 100 μM PFL_4321, 0.5 mM (NH4)2Fe(SO4)2, and 1 mM LA. This original reaction was quenched by adding 10-fold excess of EDTA to iron. The mixture was desalted on a GE Disposable PD-10 column and incubated at 4° C. on a nutator for two hours to completely remove the residual 1-undecene in the solution. The recycled apo-PFL_4321 was concentrated by using Centrifugal Filter Units (Millipore) and subjected to a second enzymatic assay that contained 50 mM MES buffer (pH 6.2), 100 mM NaCl, 100 μM PFL_4321, 0.5 mM (NH4)2Fe(SO4)2, and 1 mM LA. To initiate the reaction, 100 μL of the oxygenated buffer solution (50 mM MES, pH 6.2, 100 mM NaCl) was mixed with 100 μL of an O2-free solution containing 50 mM MES buffer (pH 6.2), 100 mM NaCl, 200 μM PFL_4321, 1 mM (NH4)2Fe(SO4)2, 2 mM LA. The control group was set up under similar conditions except that the original apo-PFL_4321 which had not been used for any enzymatic reactions was used. The experimental group containing recycled PFL_4321 produced 80% of the 1-undecene compared with the control group that contained the original PFL_4321.
molecule,measurement,setting,value
B1,production of 1-alkenes in Saccharomyces cerevisiae,[1],led to the production of 1-undecene and 1-nonene in comparable amounts
same,1-undecene production in anaerobic enzymatic assays,[2]; anaerobic,nearly abolished
same,decrease of 1-undecene production in anaerobic enzymatic assays,[2]; anaerobic versus aerobic,more than 150 fold
same,1-undecene production by recycled enzyme,"[3]; EDTA omitted, desalted",failed to catalyze the reaction
same,1-undecene produced (activity) compared with the original PFL_4321,[3]; listed as apo-PFL_4321,over 80%
same,1-undecene produced (activity) compared with the original PFL_4321,[3]; listed as recycled PFL_4321,80%
